From paper PMC7525490, “Uridine diphosphate N-acetylglucosamine orchestrates the interaction of GlmR with either YvcJ or GlmS in Bacillus subtilis” (Scientific Reports, 2020)

Assays:
YvcJ = target: T1, YvcJ (Bacillus subtilis, UniProt O06973); assay: thermal shift assay (SYPRO Orange) with apparent KD; supported by limited proteolysis with endoproteinase Glu-C; format: binding
T1 construct: 6His-tagged recombinant YvcJ
T1 sequence (O06973 1-295): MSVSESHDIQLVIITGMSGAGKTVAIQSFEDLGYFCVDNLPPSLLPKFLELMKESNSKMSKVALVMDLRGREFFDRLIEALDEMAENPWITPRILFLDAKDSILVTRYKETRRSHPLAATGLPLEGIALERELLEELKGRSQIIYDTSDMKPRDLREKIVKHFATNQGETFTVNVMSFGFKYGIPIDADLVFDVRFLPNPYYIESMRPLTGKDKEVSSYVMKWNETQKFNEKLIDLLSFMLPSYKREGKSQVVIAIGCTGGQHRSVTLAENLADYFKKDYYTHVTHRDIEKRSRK

[1] = target: the molecule itself; assay: dynamic light scattering; 24 µM YvcJ with 7 µM GlmR (ratio 1:0.3 YvcJ:GlmR) and 0.4 mM UDP-GlcNAc; 25 °C; 50 mM Tris-HCl pH 7.5, 50 mM NaCl, 5% glycerol
[2] = target: the molecule itself; assay: dynamic light scattering; 24 µM YvcJ alone, without or with 0.4 mM UDP-GlcNAc; 25 °C; 50 mM Tris-HCl pH 7.5, 50 mM NaCl, 5% glycerol
[3] = target: T2, GlmS, glucosamine-6-phosphate synthase from B. subtilis, with a C-terminal 6His-tag (Bacillus subtilis 168, UniProt P0CI73 1-600); assay: cell-based or functional assay
T2 sequence (looked up): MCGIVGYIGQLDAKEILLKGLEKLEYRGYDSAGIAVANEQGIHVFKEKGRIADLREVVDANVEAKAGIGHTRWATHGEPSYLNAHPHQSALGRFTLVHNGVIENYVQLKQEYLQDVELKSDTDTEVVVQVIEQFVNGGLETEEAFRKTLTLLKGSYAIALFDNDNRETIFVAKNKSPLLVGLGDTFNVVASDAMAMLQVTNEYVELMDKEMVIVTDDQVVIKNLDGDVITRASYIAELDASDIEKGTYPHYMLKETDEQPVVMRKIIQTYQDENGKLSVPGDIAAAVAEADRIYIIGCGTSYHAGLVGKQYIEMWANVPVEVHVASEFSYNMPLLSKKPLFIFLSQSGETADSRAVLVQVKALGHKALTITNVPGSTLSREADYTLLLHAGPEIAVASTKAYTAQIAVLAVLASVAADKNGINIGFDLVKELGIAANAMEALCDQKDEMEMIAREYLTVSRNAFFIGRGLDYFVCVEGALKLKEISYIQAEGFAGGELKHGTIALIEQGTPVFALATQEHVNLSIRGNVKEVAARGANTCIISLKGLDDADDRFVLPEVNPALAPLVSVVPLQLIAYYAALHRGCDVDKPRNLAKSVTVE

[4] = target: T3, YvcJ, purified 6His-tagged protein (Bacillus subtilis, UniProt O06973 1-295); assay: ITC; 1 mM UDP-GlcNAc
T3 chain: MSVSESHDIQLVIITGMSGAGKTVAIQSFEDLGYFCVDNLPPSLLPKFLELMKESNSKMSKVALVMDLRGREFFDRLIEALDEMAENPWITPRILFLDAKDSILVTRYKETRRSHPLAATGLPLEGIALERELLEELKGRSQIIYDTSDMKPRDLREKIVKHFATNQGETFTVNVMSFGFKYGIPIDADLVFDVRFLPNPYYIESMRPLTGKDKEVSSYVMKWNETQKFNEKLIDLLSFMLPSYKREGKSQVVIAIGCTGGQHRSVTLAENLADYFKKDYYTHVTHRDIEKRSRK

[5] = target: T3, YvcJ, purified 6His-tagged protein

CC(=O)N[C@H]1[C@@H](OP(=O)(O)OP(=O)(O)OC[C@H]2O[C@@H](n3ccc(=O)[nH]c3=O)[C@H](O)[C@@H]2O)O[C@H](CO)[C@@H](O)[C@@H]1O [UDP-GlcNAc]
Kd (YvcJ): 280 ± 470 µM

B1: YvcJ, purified 6His-tagged protein (natural protein, Bacillus subtilis, UniProt O06973 1-295, looked up)
chain: MSVSESHDIQLVIITGMSGAGKTVAIQSFEDLGYFCVDNLPPSLLPKFLELMKESNSKMSKVALVMDLRGREFFDRLIEALDEMAENPWITPRILFLDAKDSILVTRYKETRRSHPLAATGLPLEGIALERELLEELKGRSQIIYDTSDMKPRDLREKIVKHFATNQGETFTVNVMSFGFKYGIPIDADLVFDVRFLPNPYYIESMRPLTGKDKEVSSYVMKWNETQKFNEKLIDLLSFMLPSYKREGKSQVVIAIGCTGGQHRSVTLAENLADYFKKDYYTHVTHRDIEKRSRK
notes: Cloned BamHI/XhoI in pET21: the His tag is probably C-terminal and vector residues may precede Met1 (surmised); also called RapZ homologue; source: purified (Ni2+-NTA resin, PD-10 column) as previously described
stoichiometry N [1]: 5 molecules
stoichiometry N [2]: ~15 molecules

B2: GlmR (formerly YvcK), purified 6His-tagged protein (natural protein)
chain: MGQKPKIAIFGGGTGLSVLLRGLKHKPVDITAIVTVADDGGSSGRLRNELKIPPPGDIRNVLAALSDVEPLVEDLFQHRFNKGNDLTGHSLGNLILAAMTNITGDFFHAVTEMSKVLNVRGKVLPAANASVVLHAEMEDGRVVSGESTIPEYGQRIKRVFLTPEQIDPLPETIDVIREADLIIIGPGSLYTSILPNLLVPKIGEEVIKAPAKKVYICNVMTQPGETLHYTAADHVKALNQHMGCGFIDTILVNSEDIPDEIKRKYEMESARPVDFDIEELKAMGLEVIRDQIVTYKNDVIRHDTHKVASLLVDLLKE
GlmS specific activity (GlcN6P produced, enzyme-coupled assay with GNA-1, CoASH at 412 nm, 37 °C); 7.3 µM GlmS with 0 to 32.1 µM GlmR, no UDP-GlcNAc [3]: 16 fold
Kd [4]: 9.03 µM
hydrodynamic size of YvcJ by dynamic light scattering; 24 µM YvcJ titrated with GlmR at a ratio 1:0.3 in the presence of 0.4 mM UDP-GlcNAc [5]: 124 nm
